Laboratory results from the domain aggregation screens of Martell et al. (2025).

Experiment: soluble fraction after stress (log2 fold change); higher = more stays soluble; pooled small domains, quantitative proteomics
Settings: stress: 50 degC
In short: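 Custom libraries of small protein domains were pooled and measured in a high-throughput format, with quantitative proteomics as the read-out. Each library was stressed at 50°C. The value is the log2 fold change in the amount of each protein that stays soluble after stress, used as a measure of aggregation propensity; higher values mean more of the protein stays soluble.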

| Sequence | soluble fraction (log2) |
| --- | --- |
| HMIPEILNGYTKWGDDEPFEDHAGPFYMKMMPSTGRHLSAFIPEQRHMNGGGFLHGGMLMSFADYALFVI | 0.00747 |
| HMSGNPLDTYYSKWSAEIKKGSPNAVISKEGDKYYVSIPGENRMAIIYENPHLIRMVNATRNIHVE | -0.168 |
| HMTASSYMGMQLGRLEELLKKEVLSLSEKTELKDLISDFDKIPEVVSPKIIGRYLQLKNQHFAKINA | -0.0763 |
| HMERRDEINSVVSRYVSAITEGKYDLAEVDETGKLRVQTEGREVLPEALSRGTLEQFYFAFRMAVGSI | -0.118 |
| HMKKNLELGLLPHEVKSILGEPDFIDTITDIDGIRYDMWSYTKLNVTKRLYFEDLFLVRMEE | -1.43 |
| HMTKASEELYFRLKEELGTGVIVEHKKYGEGVVTQLDDRLVHIMFQDDTLRMMDLKILANAGLLKVK | 0.189 |
| HMNGLNISYRMDGENVVETIVFPDATMIRTIAPNGVMTIKTIEDGSVSTSELKADYKLYKKIYESQY | -0.262 |
| HMTETPDDLLAALKKNKKAQATFDAFSPSNKKEYILWITEAKTEATRTKRLETAIEWMSEGKARNW | -0.222 |
| HMSNSMISKDKAMSIALAKVSGATSSNIYIELEKDDGRYTYEGEINFNNKEYEFEIDAYTGNILKWEVDSI | -0.333 |
| HMAHYYVRNGYYYYQRRIPLDLRKFYSGANIKASLKTKDPAIAALFVAKFDRQYDAEFAQRRLNPD | -0.482 |
| HMNSTSGIAGVGYWINQYRKKKGMSPVDKKSPLVRRVYDWVQEQYDEGRITIISDAELTRQTELAMEA | -0.771 |
| HMESPLEQLTNRELQTLQMLGKGLSTKQIAAQLNLSVKTVETYRENLKRKLNLDSGSELIRYAIHRSNE | 0.469 |
| HMKQLNKRQDDILSLAEKEGYVSVENLAKTFTVSQQTIRRDINYLSDHEFLVRTHGGAFYSSG | 0.00837 |
| HMEAGLRMPEQLTAFSALALLQKVRDSGPLTDAQKEQLDADVLRIEASHFGKADREALELEEILKQWLSRV | -0.135 |
| HMNFHLEHHIAELLYRSIRGELSDFERQELNQWRSDSPMHETLFMRLQDDEYIDEELGVFIK | -1.99 |
| HMNVDSLIGKKARVLEDIDNLNAKGQVSIDGMEWTARSEDGSEIKKDALVEVVAIEGVKAIVKQ | 0.0709 |
| HMLDGFEVGMTVMRKPGTETGFTGWPPFADKDEFPVIERIDTSDSTLLLRFNDTSWWINASLVEPSDV | -1.33 |
| HMSRPLISNMLRLLNLPPTVQRKVAAGVISAGHARALLGLNDEKEIEKLANRIVAEGLSVRATEEIVAIA | -0.937 |
| HMDEEDVLNELIRRLALTADDRLLLSLSYEDGLSSRKIATLLETSAATVQRRLAGLHHQLEQALRVMGLA | -0.454 |

| Sequence | soluble fraction (log2) |
| --- | --- |
| HMDNLKELDEILETYGKKKGYLITILQKAQDAYGYISIDIMNRISEFTGIKVAKIYGVATFYAQFRL | 0.146 |
| HMKDLSMPDVMGSSLNDAKKALTELGIMDITVRYVESGSSEGSIVGMEPPAGSKFAADGKVVLQVSSGS | 0.351 |
| HMFQNYTDAVVVASKTFFYNMPDESTRKSAYLIQGDRIMVEKSQRNFVYVTFTNEASGRTTTGWLKSDDLE | -2.9 |
| HMDAPQRVTYLLPHSRGEVVSWLHRQGEVVAQEYEAEGVRVVVDLRYAQIRQAAKQFDVLPAEG | -0.0612 |
| HMFGSKDVKRAIEDYAAAMSSQPRALSAPQRKVLIRHLATSGLLQLRGAAKIVADELGISRASVYNALKV | -0.436 |
| HMYEVVPNMKGLSYEQAATALRTAGLEPELSDSIYDDKTRPGTVLEQSPRANTKVKPGRTVYLTVNAF | 0.0459 |
| HMETKKEIIEAINELEEKYRNAIYLTSIEKLSYEETSKILGQSLSNTKNLIHRGKQQLRKILIKK | -0.214 |
| HMGGVSTDKPLNWDADGTSKLTQEQIDYLRSTYDLSDMSKQDYYDLMADLTNMNAISIKDVISQYVK | -0.0536 |
| HMETFGLSQRELQILSQLHKGQPLKEFAASLFITESTLKTHLSAIYRKMSVKNRVQAIEKAKQSGL | -1.24 |
| HMGDTHKVPGVKGVNVEQAMDMLSRLDLKAVVIDSVYVKDKKLGTVIEQNPVEGSVVKPGRPIYLVVNSRS | 0.242 |
| HMNMANFARIRLILELHDRGMSQDEISRSRHMSRSTITTVLRTARKKGITYAGIRKLDDAALQKLFFPDR | -3.88 |
| HMFFDSDTDIQNALNAENSIKKYQLFRTQTLYNSAQSDIDFVNQPEVKAKLFDALENLKNKLGFLAEPT | -0.247 |
| HMSNWTILIIQGSAHLIDLDSKITEIDGFGSFPTKILQDYNLNEEFEIFDTNVKMVNSVQSDLQSN | -2.56 |
| HMTTKYVAVHESKDGYWTIASKPSSKEDAEAMLGGTPKNEVGKVVTLEEAKAHKKTLGEEYLYE | 0.272 |
| HMDRSKREKEQQELMLKVQQIFDDNQQRFGAEKIRTVLAQNGVRVSVKRVSAIMQELNLRSIR | -0.871 |
| HMGNTTEVLVATQDVKANTKIKESMFTTERVDTASLPDNYLSADSAKDVVGYYTYIGFTKGSVISKSNIAT | 0.0925 |
| HMLSTNDYNENKNKLIKDFEIKFIIKHLKLNKGNVAATARSINFHPVSLRQKIAKLGIDVDEVMAG | -1.84 |
| HMVVPSNPDELKGSFSLAEVASGYGLEVAAILEKAGWPADTDPNVKMRDAANAIGRDSTDIRNAVKALLKS | -0.0505 |
